Measurements as given in patent US11814663B2, “Microorganisms with improved 1,3-propanediol and butyric acid production” (METABOLIC EXPLORER, priority 2018, dated 2023).

What was measured:
Assay type in all cases: biochemical, Clostridium acetobutylicum ATCC824
[1] = substrate: OCC(O)CO; test: Glycerol kinase activity towards glycerol (ADP appearance coupled to NADH oxidation), wild type; details: other: GlpK wt, pH 9, 30° C., 2 mM ATP, 0.01-50 mM glycerol
From the text: (§1) Three different point mutations were identified in glpK gene in the clone PD0557Vc05 leading to the mutant protein GlpK* with H22Y, A347T and V466M (table 2 above). In order to better characterize the effect of the mutations, we tested them individually or in combination. Therefore, the alleles coding for the mutated glycerol kinase were cloned into the expression plasmid pPAL7 (Biorad®) and the plasmids obtained were transformed into E. coli strain BL21(DE3) star to purify each mutated protein and perform biochemical experiments.
(§2) Cultures of the seven strains 1 to 7 for the overproduction of the proteins were realized in a 2 L Erlenmeyer flask, using LB broth (Bertani, 1951) that was supplemented with 5 g/L glucose and 100 mg/L of ampicillin. An overnight culture was used to inoculate a 500 mL culture to an OD600 nm of about 0.15. The culture was first kept on a shaker at 37° C. and 200 rpm until OD600 nm was about 0.5 and then the culture was moved on a second shaker at 25° C. and 200 rpm until OD600 nm was 0.6-0.8 (about one hour), before induction with 500 μM IPTG. The culture was kept at 25° C. and 200 rpm until OD600 nm was around 4, and then it was stopped. Cells were centrifuged at 7000 rpm, 5 minutes at 4° C., and then stored at −20° C. This protocol was the same for strains 1 to 7.
(§3) For each strain, about 250 mg of E. coli biomass was suspended in 40 ml of 100 mM potassium phosphate pH 7.6, and a protease inhibitor cocktail. The cells suspension (15 ml per conical tube) was sonicated on ice (Bandelin sonoplus, 70 w) in a 50 ml conical tube during 8 cycles of 30 sec with 30 sec intervals. After sonication, cells were incubated for 30 min at room temperature with 5 mM MgCl2 and 1 UI/ml of DNaseI. Cells debris were removed by centrifugation at 12000 g for 30 min at 4° C.
(§4) The proteins were purified from the crude cell-extract by affinity on a Profinity column (BIORAD, Bio-Scale Mini Profinity exact cartridge 5 ml) according to the protocol recommended by the manufacturer. The crude extract was loaded on a 5 ml Profinity exact cartridge equilibrated with 100 mM potassium phosphate pH 7.6. […] Protein concentration was measured using the Bradford protein assay.
(§5) Determination of kinetic parameters of GlpK wild type and mutants Glycerol kinase activity (GLPK) that catalyses the following reaction: Glycerol+ATP=>Glycerol-3-Phosphate+ADP, was determined by measuring the ADP appearance by enzymatic coupling to NADH oxidation. […] The oxidation of NADH was monitored at 30° C. by absorbance at 340 nm on a spectrophotometer (λ340=6290 M^−1 cm^−1).
(§6) One unit of enzyme activity was defined as the amount of enzyme catalyzing the decrease of 1 μmol of NADH per min. Kinetic parameters were determined with Sigmaplot by fitting to the Michaelis-Menten equation.

[2] = substrate: OCC(O)CO; test: Glycerol kinase activity towards glycerol (ADP appearance coupled to NADH oxidation), A347T; details: other: GlpK* A347T, pH 9, 30° C., 2 mM ATP, 0.01-50 mM glycerol
From the text: as §1, §2, §3, §4, §5, §6

[3] = substrate: OCC(O)CO; test: Glycerol kinase activity towards glycerol (ADP appearance coupled to NADH oxidation), V466M; details: other: GlpK* V466M, pH 9, 30° C., 2 mM ATP, 0.01-50 mM glycerol
From the text: as §1, §2, §3, §4, §5, §6

[4] = substrate: OCC(O)CO; test: Glycerol kinase activity towards glycerol (ADP appearance coupled to NADH oxidation), A347T/V466M; details: other: GlpK* (A347T/V466M), pH 9, 30° C., 2 mM ATP, 0.01-50 mM glycerol
From the text: as §1, §2, §3, §4, §5, §6

[5] = substrate: OCC(O)CO; test: Glycerol kinase activity towards glycerol (ADP appearance coupled to NADH oxidation), H22Y; details: other: GlpK* H22Y, pH 9, 30° C., 2 mM ATP, 0.01-50 mM glycerol
From the text: as §1, §2, §3, §4, §5, §6

[6] = substrate: OCC(O)CO; test: Glycerol kinase activity towards glycerol (ADP appearance coupled to NADH oxidation), H22Y/A347T; details: other: GlpK* (H22Y/A347T), pH 9, 30° C., 2 mM ATP, 0.01-50 mM glycerol
From the text: as §1, §2, §3, §4, §5, §6

B1: Clostridium acetobutylicum glycerol kinase GlpK wt (glpK, CA_C1321, Uniprot Q97JG4), SEQ ID NO: 1 (Clostridium acetobutylicum ATCC 824) (protein)
chain: MKKYIIALDQGTTSSRAIIFDHEQNILEISQKEFTQIYPSKGWVEHNPLEIWSSQYGVLQEVMAKANITQENIAAIGITNQRETTIVWDKNTGEPVYNAIVWQCRRTADIVEGLKRDKEFSDYVKENTGLILDAYFSATKIKWILDNVEGAREKAEKGELLFGTVDTWLVWKLTNGKVHVTDYTNASRTMLYNIKELKWDERILRKLNIPRSMLPEVKNSSEVYGYTNLGGKGGIRVPIAGMAGDQQCALFGQTCFEEGSVKNTYGTGCFLLMNTGENIIQSKNGLVTTIAIGLEGKVQYALEGSVFVGGAVIQWIRDELKLVSDAADTEYFAKKVNDNGGVYVVPAFTGLGAPYWDMYARGAIFGLTRGANKNHIIRAALEAIAYQSRDLIDAMKEDSGCEITRIKVDGGASRNNLLMQFQADITGTEVVRPIITETTALGAAYLAGLAVGFWKSKEEIAEKWSVSEVYTPNLDEDEKIRLYNGWKRAVERVQGWEE
notes: GlpK wt; Q97JG4; made in house; host or cells: E. coli BL21(DE3) star
- Km [1]: 54 ± 1 µM
- Vmax [1]: 87734 ± 499 nmol/min/mg
- kcat [1]: 82.22 ± 0.467 s⁻¹
- kcat/Km [1]: 1.52e+06 ± 53000 M⁻¹ s⁻¹

B2: Clostridium acetobutylicum glycerol kinase GlpK variant GlpK*(A347T), SEQ ID NO: 3 (Clostridium acetobutylicum ATCC 824; A347T) (protein)
chain: MKKYIIALDQGTTSSRAIIFDHEQNILEISQKEFTQIYPSKGWVEHNPLEIWSSQYGVLQEVMAKANITQENIAAIGITNQRETTIVWDKNTGEPVYNAIVWQCRRTADIVEGLKRDKEFSDYVKENTGLILDAYFSATKIKWILDNVEGAREKAEKGELLFGTVDTWLVWKLTNGKVHVTDYTNASRTMLYNIKELKWDERILRKLNIPRSMLPEVKNSSEVYGYTNLGGKGGIRVPIAGMAGDQQCALFGQTCFEEGSVKNTYGTGCFLLMNTGENIIQSKNGLVTTIAIGLEGKVQYALEGSVFVGGAVIQWIRDELKLVSDAADTEYFAKKVNDNGGVYVVPTFTGLGAPYWDMYARGAIFGLTRGANKNHIIRAALEAIAYQSRDLIDAMKEDSGCEITRIKVDGGASRNNLLMQFQADITGTEVVRPIITETTALGAAYLAGLAVGFWKSKEEIAEKWSVSEVYTPNLDEDEKIRLYNGWKRAVERVQGWEE
notes: GlpK*(A347T); made in house; host or cells: E. coli BL21(DE3) star
- Km [2]: 260 ± 31 µM
- Vmax [2]: 6977 ± 155 nmol/min/mg
- kcat [2]: 6.538 ± 0.145 s⁻¹
- kcat/Km [2]: 24900 ± 3500 M⁻¹ s⁻¹

B3: Clostridium acetobutylicum glycerol kinase GlpK variant GlpK*(V466M), SEQ ID NO: 7 (Clostridium acetobutylicum ATCC 824; V466M) (protein)
chain: MKKYIIALDQGTTSSRAIIFDHEQNILEISQKEFTQIYPSKGWVEHNPLEIWSSQYGVLQEVMAKANITQENIAAIGITNQRETTIVWDKNTGEPVYNAIVWQCRRTADIVEGLKRDKEFSDYVKENTGLILDAYFSATKIKWILDNVEGAREKAEKGELLFGTVDTWLVWKLTNGKVHVTDYTNASRTMLYNIKELKWDERILRKLNIPRSMLPEVKNSSEVYGYTNLGGKGGIRVPIAGMAGDQQCALFGQTCFEEGSVKNTYGTGCFLLMNTGENIIQSKNGLVTTIAIGLEGKVQYALEGSVFVGGAVIQWIRDELKLVSDAADTEYFAKKVNDNGGVYVVPAFTGLGAPYWDMYARGAIFGLTRGANKNHIIRAALEAIAYQSRDLIDAMKEDSGCEITRIKVDGGASRNNLLMQFQADITGTEVVRPIITETTALGAAYLAGLAVGFWKSKEEIAEKWSMSEVYTPNLDEDEKIRLYNGWKRAVERVQGWEE
notes: GlpK*(V466M); made in house; host or cells: E. coli BL21(DE3) star
- Km [3]: 58 ± 3 µM
- Vmax [3]: 60399 ± 537 nmol/min/mg
- kcat [3]: 56.6 ± 0.5 s⁻¹
- kcat/Km [3]: 973000 ± 52000 M⁻¹ s⁻¹

B4: Clostridium acetobutylicum glycerol kinase GlpK variant GlpK*(A347T/V466M), SEQ ID NO: 11 (Clostridium acetobutylicum ATCC 824; A347T/V466M) (protein)
chain: MKKYIIALDQGTTSSRAIIFDHEQNILEISQKEFTQIYPSKGWVEHNPLEIWSSQYGVLQEVMAKANITQENIAAIGITNQRETTIVWDKNTGEPVYNAIVWQCRRTADIVEGLKRDKEFSDYVKENTGLILDAYFSATKIKWILDNVEGAREKAEKGELLFGTVDTWLVWKLTNGKVHVTDYTNASRTMLYNIKELKWDERILRKLNIPRSMLPEVKNSSEVYGYTNLGGKGGIRVPIAGMAGDQQCALFGQTCFEEGSVKNTYGTGCFLLMNTGENIIQSKNGLVTTIAIGLEGKVQYALEGSVFVGGAVIQWIRDELKLVSDAADTEYFAKKVNDNGGVYVVPTFTGLGAPYWDMYARGAIFGLTRGANKNHIIRAALEAIAYQSRDLIDAMKEDSGCEITRIKVDGGASRNNLLMQFQADITGTEVVRPIITETTALGAAYLAGLAVGFWKSKEEIAEKWSMSEVYTPNLDEDEKIRLYNGWKRAVERVQGWEE
notes: GlpK*(A347T/); made in house; host or cells: E. coli BL21(DE3) star
- Km [4]: 480 ± 48 µM
- Vmax [4]: 6267 ± 175 nmol/min/mg
- kcat [4]: 5.873 ± 0.163 s⁻¹
- kcat/Km [4]: 12310 ± 1600 M⁻¹ s⁻¹

B5: Clostridium acetobutylicum glycerol kinase GlpK variant GlpK*(H22Y), SEQ ID NO: 5 (Clostridium acetobutylicum ATCC 824; H22Y) (protein)
chain: MKKYIIALDQGTTSSRAIIFDYEQNILEISQKEFTQIYPSKGWVEHNPLEIWSSQYGVLQEVMAKANITQENIAAIGITNQRETTIVWDKNTGEPVYNAIVWQCRRTADIVEGLKRDKEFSDYVKENTGLILDAYFSATKIKWILDNVEGAREKAEKGELLFGTVDTWLVWKLTNGKVHVTDYTNASRTMLYNIKELKWDERILRKLNIPRSMLPEVKNSSEVYGYTNLGGKGGIRVPIAGMAGDQQCALFGQTCFEEGSVKNTYGTGCFLLMNTGENIIQSKNGLVTTIAIGLEGKVQYALEGSVFVGGAVIQWIRDELKLVSDAADTEYFAKKVNDNGGVYVVPAFTGLGAPYWDMYARGAIFGLTRGANKNHIIRAALEAIAYQSRDLIDAMKEDSGCEITRIKVDGGASRNNLLMQFQADITGTEVVRPIITETTALGAAYLAGLAVGFWKSKEEIAEKWSVSEVYTPNLDEDEKIRLYNGWKRAVERVQGWEE
notes: GlpK*(H22Y); made in house; host or cells: E. coli BL21(DE3) star
- Km [5]: 70 ± 4 µM
- Vmax [5]: 91725 ± 1186 nmol/min/mg
- kcat [5]: 85.97 ± 1.12 s⁻¹
- kcat/Km [5]: 1.229e+06 ± 93000 M⁻¹ s⁻¹

B6: Clostridium acetobutylicum glycerol kinase GlpK variant GlpK*(H22Y/A347T), SEQ ID NO: 9 (Clostridium acetobutylicum ATCC 824; A347T/H22Y) (protein)
chain: MKKYIIALDQGTTSSRAIIFDYEQNILEISQKEFTQIYPSKGWVEHNPLEIWSSQYGVLQEVMAKANITQENIAAIGITNQRETTIVWDKNTGEPVYNAIVWQCRRTADIVEGLKRDKEFSDYVKENTGLILDAYFSATKIKWILDNVEGAREKAEKGELLFGTVDTWLVWKLTNGKVHVTDYTNASRTMLYNIKELKWDERILRKLNIPRSMLPEVKNSSEVYGYTNLGGKGGIRVPIAGMAGDQQCALFGQTCFEEGSVKNTYGTGCFLLMNTGENIIQSKNGLVTTIAIGLEGKVQYALEGSVFVGGAVIQWIRDELKLVSDAADTEYFAKKVNDNGGVYVVPTFTGLGAPYWDMYARGAIFGLTRGANKNHIIRAALEAIAYQSRDLIDAMKEDSGCEITRIKVDGGASRNNLLMQFQADITGTEVVRPIITETTALGAAYLAGLAVGFWKSKEEIAEKWSVSEVYTPNLDEDEKIRLYNGWKRAVERVQGWEE
notes: GlpK*(H22Y/); made in house; host or cells: E. coli BL21(DE3) star
- Km [6]: 620 ± 50 µM
- Vmax [6]: 9784 ± 195 nmol/min/mg
- kcat [6]: 9.08 ± 0.183 s⁻¹
- kcat/Km [6]: 14700 ± 1500 M⁻¹ s⁻¹
